Positions count from the first letter of the chain named. Read-outs that look alike come from different tables or passages of the source.

The target in experiment [1] is T1, SARS-CoV-2 spike protein trimer, Omicron (B.1.1.529) variant (SARS-CoV-2, UniProt P0DTC2 16-1213). The experiment is described as follows: BLI. On the technique in general: In BLI a coated tip is dipped into the sample, and binding shifts an interference pattern.
Experiment [2] concerns the target T1, SARS-CoV-2 spike protein trimer, …. The experiment is described as follows: flow.
Experiment [3] deals with SARS-CoV-2 spike protein trimer, Gamma (P.1) variant (SARS-CoV-2, UniProt P0DTC2 16-1213).
The target in experiment [4] is SARS-CoV-2 spike protein trimer, Alpha (B.1.1.7) variant (SARS-CoV-2, UniProt P0DTC2 16-1213).
Experiment [5] has as its target T2, SARS-CoV-2 spike protein trimer, Beta (B.1.351) variant (SARS-CoV-2, UniProt P0DTC2 16-1213).
In experiment [6] the target is SARS-CoV-2 spike protein trimer, Epsilon (B.1.429) variant (SARS-CoV-2, UniProt P0DTC2 16-1213).
In experiment [7] the target is SARS-CoV-2 spike protein trimer, Kappa (B.1.617.1) variant (SARS-CoV-2, UniProt P0DTC2 16-1213).
For experiment [8], the target named is T2, SARS-CoV-2 spike protein trimer, Beta …. Description: BLI.
Experiment [9] has as its target T1, SARS-CoV-2 spike protein trimer, …. The experiment is described as follows: BLI. This is another data set of the same source.
Experiment [10] addresses T2, SARS-CoV-2 spike protein trimer, Beta …. Description: BLI. This is another data set of the same source.
Experiment [11] concerns the target T1, SARS-CoV-2 spike protein trimer, …. Description: BLI. The source holds these as a separate data set.
Experiment [12] shares this target. Description: ELISA. (In general: In an ELISA, binding on a coated surface is turned into a signal by an enzyme label.)
Experiment [13] addresses SARS-CoV-2 spike protein trimer, Delta (B.1.617.2) variant (SARS-CoV-2, UniProt P0DTC2 16-1213). The experiment is described as follows: ELISA.
Experiment [14] has as its target SARS-CoV-2 spike protein trimer, Omicron (BA.2) variant (SARS-CoV-2, UniProt P0DTC2 16-1213). The experiment is described as follows: ELISA.

B1: LxA3-E4 (antibody, V domains shown)
VH: EVQLVESGGGLVQPGGSLRLSCEASGFTFPNQAMTWVRQAPGKGLEWIGVIASNADTYYASWAKGRFTISRDNSKNTLYLQMNSLRAEDTAVYYCARHPGSAGYGYGHYYAMDPWGQGTLVTVSS
VL: DIQMTQSPSSLSASVGDRVTITCQASENIRYAINWYQQKPGKAPKLLIYGATYRDEGVPSRFSGSGSGTDYTLTISSLQPEDFATYYCQQGYVVPNSFGGGTKVEIK
The term Kd denotes the constant that tells how readily two partners part at equilibrium. Take B1: the Kd in experiment [1] is less than 0.001 nM.

B2: LxA3-B11 (antibody, V domains shown)
VH: B1 VH
VL: DIQMTQSPSSLSASVGDRVTITCLASEQAHYAINWYQQKPGKAPKLLIYGTSLLAEGVPSRFSGSGSGTDFTLTISSLQPEDFATYYCQQGYIVPISFGGGTKVEIK
As to B2, binding in [1] was characterised by a dissociation constant (Kd) of 0.0449 nM.

B3: humanized antibody hN2F (antibody, V domains shown)
VH: B1 VH with E23T, A24V, T28S, F29L, P30S, N31T, Q32Y, T35S, G107A, H108V
VL: DIQMTQSPSSLSASVGDRVTITCKASEDIRYGLNWYQQKPGKAPKLLIYGANTLEAGVPSRFSGSGSGTDFTLTISSLQPEDFATYYCQQGYSTPLTFGGGTKVEIK
A word on the IC50: it is the concentration needed to halve the response being measured. The low end stands for greater potency, the high end for weaker potency. For B3, the IC50 in [2] is more than 0.5 µg/mL; in experiment [3], 2.18 µg/mL; in experiment [4], 0.0561 µg/mL; in [5] it was 1.29 µg/mL; in experiment [6], 0.0101 µg/mL; in [7], 0.0589 µg/mL.

B4: humanized antibody hN2Y (antibody, V domains shown)
VH: B1 VH with E23T, A24V, T28S, F29L, P30S, N31T, Q32Y, T35S, G107A, H108V
VL: B3 VL with F71Y
Take B4: the half-maximal inhibitory concentration (IC50) in experiment [3] is 0.0588 µg/mL; in experiment [4], 0.0704 µg/mL; in [5] it was 0.0347 µg/mL; in experiment [6] it was 0.0184 µg/mL; in [7] it was 0.0117 µg/mL; in [12], 0.44 µg/mL. Moreover, the IC50 in [13] came to 0.00419 µg/mL; in experiment [14], 0.159 µg/mL. The equilibrium dissociation constant (Kd) in experiment [8] stood at 0.193 nM; in [9] it was 0.123 nM; in experiment [10], 0.193 nM; in experiment [11], 0.123 nM.

B5: rabbit monoclonal antibody C-A11 (antibody, V domains shown)
VH: QSLEESGGRLVTPGTPLTLTCTVSGFSLSTYAMSWVRQAPGKGLEWIGVIASNADTYYASWAKGRITISKTSTTVDLKITSPTTEDTATYFCARHPGSAGYGYAVYYAMDPWGPGTLVTVSS
VL: AIEMTQSPSSLAASVGDTVTITCKASEDIRYGLNWYQQKLGIAPKLLIYGANTLEAGVPSRFSGSGSETDYTLTISSVQAEDAGIYYCQQGYSTPLTFGAGTKVEIK
As to B5, the IC50 in [2] is more than 0.5 µg/mL; in [3], 0.0548 µg/mL; in experiment [4] it was 0.0495 µg/mL; in [5], 0.0218 µg/mL; in [6], 0.00314 µg/mL; in experiment [7], 0.0141 µg/mL. Besides, the Kd in experiment [8] and in experiment [10] was 0.0404 nM each time.

The values above are taken from US20240352445A1 (published 2024).
